Measured values published in publication PMC8491169 (Experimental eye research, 2021).

Target: full-length recombinant human proteoglycan 4 (rhPRG4) (human, UniProt Q92954 25-1404)
Assay: SPR

B1: recombinant human matrix metalloproteinase 9 (rhMMP-9) (enzyme)
chain: APRQRQSTLVLFPGDLRTNLTDRQLAEEYLYRYGYTRVAEMRGESKSLGPALLLLQKQLSLPETGELDSATLKAMRTPRCGVPDLGRFQTFEGDLKWHHHNITYWIQNYSEDLPRAVIDDAFARAFALWSAVTPLTFTRVYSRDADIVIQFGVAEHGDGYPFDGKDGLLAHAFPPGPGIQGDAHFDDDELWSLGKGVVVPTRFGNADGAACHFPFIFEGRSYSACTTDGRSDGLPWCSTTANYDTDDRFGFCPSERLYTQDGNADGKPCQFPFIFQGQSYSACTTDGRSDGYRWCATTANYDRDKLFGFCPTRADSTVMGGNSAGELCVFPFTFLGKEYSTCTSEGRGDGRLWCATTSNFDSDKKWGFCPDQGYSLFLVAAHEFGHALGLDHSSVPEALMYPMYRFTEGPPLHKDDVNGIRHLYGPRPEPEPRPPTTTTPQPTAPPTVCPTGPPTVHPSERPTAGPTGPPSAGPTGPPTAGPSTATTVPLSPVDDACNVNIFDAIAEIGNQLYLFKDGKYWRFSEGRGSRPQGPFLIADKWPALPRKLDSVFEERLSKKLFFFSGRQVWVYTGASVLGPRRLDKLGLGADVAQVTGALRSGRGKMLLFSGRRLWRFDVKAQMVDPRSASEVDRMFPGVPLDTHDVFQYREKAYFCQDRFYWRVSSRSELNQVDQVGYVTYDILQCPED
Kd: 42.1 nM | koff: 0.000937 s⁻¹ | kon: 22300 M⁻¹ s⁻¹
